Assay results as given in patent US7033788B2, “Protein derived from Agkistrodon saxatilis emelianov and process preparing the same” (priority 2002, dated 2006).

B1: Saxatilin (protein)
chain: EAGEECDCGAPANPCCDAATCKLRPGAQCAEGLCCDQCRFMKEGTICRMARGDDMDDYCNGISAGCPRNPFHA
B2: Recombinant Saxatilin: Saxatilin expressed in Pichia pastoris transformed with pPSAX, obtained in Example 6 (protein)
chain: B1 chain

Tests used:
[1] = tested on: human platelet rich plasma (PRP); type: cell-based; conditions: method of Example 1 (collagen-induced, human PRP); read-out: IC50 determined by platelet aggregation inhibition assay
Experimental: To isolate Saxatilin from the venom of Agkistrodon saxatilis emelianov, 302.4 mg of crude venom from the snake was applied to a SEPHADEX™ G-75 gel filtration column (1.8×100 cm) equilibrated with PBS buffer, and fractionated at a flow rate of 20 ml/h. The activity of Saxatilin was determined by the platelet aggregation inhibition assay: The concentrated human platelet rich plasma (PRP) obtained from 400 ml of human blood was diluted to the concentration of 300,000 platelets/μl. The diluted PRP (450 μl) was mixed with 50 μl of PBS and then incubated in the aggregometer CHROMO-LOGT™, USA) at 37° C. for 3 minutes. After collagen ([…]) was added into the PRP solution to induce the platelet aggregation, the difference of light transmittance was measured.
Recombinant Saxatilin obtained in Example 6 was assayed by the platelet aggregation inhibition method described in Example 1, and compared with those of wild-type Saxatilin obtained in Example 1 and GRGDSP (SEQ ID NO:7) (see: Table 1), respectively.

[2] = tested on: αVβ3 integrin on HUVEC surface; experiment: HUVEC adhesion to Saxatilin-coated plate; type: cell-based, human; conditions: pre-incubation of bFGF-stimulated HUVEC 20 min; FIG. 4b
Experimental: (§1) 96-well plate was coated with recombinant Saxatilin obtained in Example 6 (1 μg/well) as well as Vitronectin (0.5 μg/well) which were dissolved in phosphate buffered saline (PBS) for 16 hr at 4° C. After washing the plate, 10 mg/ml of heat-treated bovine serum albumin (BSA) was added for blocking of uncharged protein binding site. The plate was incubated for 1 hr and washed with PBS. HUVEC was trypsinized and washed with PBS three times, and then, resuspended in serum-free DMEM. 5×10^4 cells were mixed with anti-αVβ3 monoclonal antibody, a synthesized RGD peptide, GRGDSP (SEQ ID NO:7), a synthesized RGE peptide, GRGETP (SEQ ID NO:8) and Saxatilin, and pre-incubated for 20 min at 37° C. Then, the mixture was added to the wells of both Saxatilin and Vitronectin-coated 96-well plate. After 1 hr of incubation at 37° C. under an environment of 5% CO2, the plate was washed with PBS to remove unbound cells, and bound cells were fixed and stained with Coomassie blue. Optical absorbences of the wells were measured at 540 nm to count relative cell numbers (see: FIGS. 4a and 4b).

[3] = tested on: αVβ3 integrin on HUVEC surface; experiment: HUVEC adhesion to Vitronectin-coated plate; type: cell-based, human; conditions: pre-incubation of bFGF-stimulated HUVEC 20 min; FIG. 4a
Experimental: To confirm that inhibition of HUVEC proliferation by Saxatilin is due to the direct interaction of Saxatilin with Vitronectin receptor, αVβ3 integrin, localized on the HUVEC surface, it was investigated whether Saxatilin blocks HUVEC from binding to Vitronectin-coated 96-well plate.
as §1

[4] = tested on: male C57BL/6 mouse; experiment: Acute toxicity (LD50); type: in vivo; conditions: subcutaneous injection, 7 days
Experimental: To examine the acute toxicity of Saxatilin as anti-platelet aggregation agent and anti-tumor agent, Saxatilin was injected into male C57BL/6 mouse subcutaneously and the dead were counted to determine LD50 for 7 days.

[5] = tested on: human platelet rich plasma; experiment: Platelet aggregation inhibition assay, ADP-induced (Example 5); type: cell-based
Experimental: After ADP was added into each of the PRP solutions to induce the platelet aggregation, the turbidity was measured, respectively (see: FIG. 1).

[6] = tested on: ICR mice; experiment: Collagen/epinephrine-induced thrombosis in mice, viability; type: in vivo, mouse; conditions: 10 min before collagen + epinephrine
Experimental: When a mixture of collagen and epinephrine was injected into mice intravenously, thrombus was formed in pulmonary artery, which led to paralysis, dilation of pupil, laboring breath and convulsions, and finally 70% of the mice died not more than 5 min. Thus, it was investigated whether the intravenous injection of recombinant Saxatilin could reduce the thrombosis symptoms.
At 10 minutes after Saxatilin (0, 0.1, 0.25 and 0.5 mg/kg dissolved in 0.1 ml PBS, respectively) was intravenously injected into the tails of ICR mice, the mixture of collagen and epinephrine (120 μg collagen and 12 μg epinephrine in 0.1 ml PBS) was also injected into the tails of ICR mice, intravenously, and the viability was determined (see: Table 2).

[7] = tested on: Lewis lung carcinoma cells; experiment: Metastatic Lewis lung carcinoma growth in mice; type: in vivo, C57BL/6 mice
Experimental: 1×10^6 Lewis lung carcinoma cells (purchased from […], Rockville, Md., USA) were injected into the tails of 8-week-old male C57BL/6 mice (Charles river, Japan), intravenously. At 4 day after injection, recombinant Saxatilin obtained from Example 6 was periodically applied to mice by intravenous injection in an amount of 1.25 mg/kg/day (once per day). After 4-weeks of periodical treatment, tumor-bearing mice were sacrificed, and the number of tumor colony was counted by using stereomicroscope.
Furthermore, to observe the direct effect of Saxatilin on the metastatic lung carcinoma, histochemical study was carried out. Tumor-bearing lung tissue was fixed in paraffin in accordance with the conventionally known method followed by treatment of Bouin's solution for 4 hours. The tissue section of 4 μm thickness was infiltrated with trypsin at 37° C. for 10 min and washed with PBS. The tissue section was stained with hematoxylin and eosin, and then mounted (see: FIGS. 6a, 6b and 6c). FIG. 6a is a photograph showing lung tissue without Lewis lung carcinoma cell; FIG. 6b, lung tissue implanted with Lewis lung carcinoma cell and then treated with PBS; and, FIG. 6c, lung tissue implanted with Lewis lung carcinoma cell and then treated with Saxatilin. […] As illustrated as above, it was assumed that the suppression of metastatic tumor growth in Saxatilin-treated mice was due to blockade of Saxatilin against angiogenesis, which was essential for the secondary tumor growth.

[8] = tested on: BCE cell; experiment: bFGF-stimulated BCE cell proliferation; type: cell-based
[9] = tested on: chick chorioallantoic membrane (CAM); experiment: Chick chorioallantoic membrane (CAM) assay, bFGF-stimulated angiogenesis; type: in vivo; conditions: 5 μg applied to CAM, observed at 72 hr; FIG. 5b
Experimental: Chick chorioallantoic membrane (CAM) assay, a simulated in vivo model, was carried out to examine the effect of Saxatilin on bFGF-stimulated angiogenesis. A part of the rind of fertilized 3-day-old egg was broken carefully, and sealed with transparent tape, and incubated for 10 days at 37° C. under an environment of 60% humidity. Then, bFGF was applied to the chick chorioallantoic membrane (CAM) of individual embryo (6 ng/embryo) to induce angiogenesis. After further incubation of 24 hr, PBS as a negative control and 5 μg recombinant Saxatilin obtained from Example 6 were applied to CAM, respectively. At 72 hr after treatment, the blood vessels of embryos were observed (see: FIGS. 5a and 5b).

[10] = tested on: HUVEC; experiment: bFGF-stimulated HUVEC proliferation inhibition assay; type: cell-based, human; conditions: 0, 20, 30 μg/ml; 1 ng/ml bFGF; 72 hr; FIG. 3
Experimental: To investigate whether recombinant Saxatilin containing RGD sequence inhibits the endothelial cell proliferation, proliferation inhibition assay was performed using HUVEC.
HUVEC was cultured on 24-well microplate coated with gelatin at 37° C. for 24 hr under an environment of 5% CO2. […] Then, cells were further incubated for 20 min and treated with 1 ng/ml of bFGF solution. After incubation of 72 hr, cells were trypsinized and the cell numbers were counted to determine cell viability (see: FIG. 3).

[11] = 1.25 mg/kg/day i.v. from day 4, 4 weeks, C57BL/6 mice

Molecule | IC50 [1] | HUVEC adhering to Saxatilin [2] | HUVEC adhering to Vitronectin [3] | LD50 [4] | IC50 ([5]; ADP-induced aggregation, human PRP, 25° C.) | inhibitory effect relative to GRGDSP peptide ([5]; ADP-induced platelet aggregation, more potent than GRGDSP) | Mortal group/Total group ([6]; 0.1 mg/kg i.v.) | Viability ([6]; 0.1 mg/kg i.v.) | Mortal group/Total group ([6]; 0.25 mg/kg i.v.) | Viability ([6]; 0.25 mg/kg i.v.) | Mortal group/Total group ([6]; 0.5 mg/kg i.v.) | Viability ([6]; 0.5 mg/kg i.v.) | Average colony number [7, 11] | Inhibition rate (%) [7, 11] | effect on metastatic tumor growth ([7]; 1.25 mg/kg/day i.v., 4 weeks) | metastatic tumor growth in lung tissue, histochemical study ([7]; hematoxylin and eosin stained lung sections, FIG. 6c) | toxicity on tested mice ([7]; tumor-bearing mice, 1.25 mg/kg/day i.v.) | bFGF-stimulated BCE cell proliferation [8] | effect on bFGF-stimulated angiogenesis (CAM) [9] | effect on HUVEC growth [10]
N=C(N)NCCC[C@H](NC(=O)CN)C(=O)NCC(=O)N[C@@H](CC(=O)O)C(=O)N[C@@H](CO)C(=O)N1CCC[C@H]1C(=O)O [GRGDSP, reference compound] | 270000 nM | prevented HUVEC from adhering | prevented HUVEC from adhering | – | – | – | – | – | – | – | – | – | – | – | – | – | – | – | – | –
B1 | – | prevented HUVEC from adhering | prevented HUVEC from adhering | about 1100 mg/kg | 179 nM | 1000 times | 16/20 | 20 | 11/20 | 55 | 3/20 | 85 | 0.7 ± 0.6 | 95% | potently inhibited the metastatic tumor growth | not observed | no toxicity | potently inhibited | had an inhibitory effect on angiogenesis | inhibited the HUVEC growth in a dose-dependent manner
B2 | 139 nM | – | – | – | – | – | – | – | – | – | – | – | – | – | – | – | – | – | – | –
